Target: T1, human IL-1α (human, UniProt P01583 113-271)
T1 construct: also called IL-1alpha; hIL-1α
T1 sequence (looked up): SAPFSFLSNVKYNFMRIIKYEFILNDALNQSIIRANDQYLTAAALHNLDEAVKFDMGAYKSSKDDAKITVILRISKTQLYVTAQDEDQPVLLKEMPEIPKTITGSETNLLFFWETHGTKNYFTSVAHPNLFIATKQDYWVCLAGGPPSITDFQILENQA
Assay: Table 62 IC50; RBA presumed

Row | Binder | IC50 [nM]
1 | ABT1-95-35 (other, VK dAb) VL: DIQMTQSPSSLSASVGDRVTITCRASGPIVRNLRWYQQKPGKAPKLLIYSSSYLEPGVPSRFSGSGSGTDFTLTISSLQPEDFATYHCQQGYRWPVTFGQGTKVEIKR | 0.2
2 | ABT1-95-87 (other, VK dAb) VL: DIQMTQSPSSLSASVGDRVTITCRASQPIVRNLRWYQQKPGKAPKLLIYSSSRLEPGVPSRFSGSGSGTDFTLTISSLQPEDFATYHCQQGYRWPVTFGQGTKVEIKR | 0.2
3 | ABT1-95-71 (other, VK dAb) VL: DIQMTQSPSSLSASVGDRVTITCRASQPIVRNLRWYQQKPGKAPKLLIYNSSYLEPGVPSRFSGSGSGTDFTLTISSLQPEDFATYHCQQGYRWPVTFGQGTKVEIKR | 1
4 | ABT1-95-54 (other, VK dAb) VL: DIQMTQSPSSLSASVGDRVTITCRASQPIVTNLRWYQQKPGKAPKLLIYSSSYLEPGVPSRFSGSGSGTDFTLTISSLQPEDFATYHCQQGYRWPVTFGQGTKVEIKR | 1
5 | ABT1-95-63 (other, VK dAb) VL: DIQMTQSPSSLSASVGDRVTITCRASQPIVRNLRWYQQKLGKAPKLLIFSSSYLEPGVPSRFSGSGSGTDFTLTISSLQPEDFATYHCQQGYRWPVTFGQGTKVEIKR | 0.6
6 | ABT1-95-75 (other, VK dAb) VL: DIQMTQSPSSLSASVGDRVTITCRASQPIVRNLRWYQQKPGKAPKLLIYSASYLEPGVPSRFSGSGSGTDFTLTISSLQPEDFATYHCQQGYRWPVTFGQGTKVEIKR | 0.3
7 | ABT1-95-96 (other, VK dAb) VL: DIQMTQSPSSLSASVGDRVTIACRASQPIVRNLRWYQQKPGKAPKLLIYSSSRLEPGVPSRFSGSGSGTDFTLTISSLQPEDFATYHCQQGYRWPVTFGQGTKVEIKR | 0.1
8 | ABT1-95-93 (other, VK dAb) VL: DIQMTQSPSSLSASVGDRVTITCRASQPIVRNLRWYQQKPGKAPKLLIYSSSILEPGVPSRFSGGGSGTDFTLTISSLQPEDFATYHCQQGYRWPVTFGQGTKVEIKR | 0.1
9 | ABT1-95-91 (other, VK dAb) VL: DIQMTQSPSSLSASVGDRVTITCRASQPIVRNLRWYQQKPGKAPKLLIYSSSNLEPGVPSRFSGSGSGTDFTLTISSLQPEDFATYHCQQGYRWPVTFGQGTKVEIKR | 0.3
10 | ABT1-95-57 (other, VK dAb) VL: DIQMTQSPSSLSASVGDRVTITCRASQPIVENLRWYQQKPGKAPKLLIYSSSYLEPGVPSRFSGSGSGTDFTLTISSLQPEDFATYHCQQGYRWPVTFGQGTKVEIKR | 0.6
11 | ABT1-95-65 (other, VK dAb) VL: DIQMTQSPSSLSASVGDRVTITCRASQPIVRNLRWYQQKPGKAPKLLIYGSSYLEPGVPSRFSGSGSGTDFTLTISSLQPEDFATYHCQQGYRWPVTFGQGTKVEIKR | 0.2
12 | ABT1-95-95 (other, VK dAb) VL: DIQMIQSPSSLSASVGDRVTITCRASQPIVRNLRWYQQKPGKAPKLLIYSSSQLEPGVPSRFSGSGSGTDFTLTISSLQPEDFATYHCQQGYRWPVTFGQGTKVEIKR | 0.3
13 | ABT1-95-69 (other, VK dAb) VL: DIQMTQSPSSLSASVGDRVTITCRASQPIVRNLRWYQQKPGKAPKLLIYKSSYLEPGVPSRFSGSGSGTDFTLTISSLQPEDFATYHCQQGYRWPVTFGQGTKVEIKR | 1
14 | ABT1-95-98 (other, VK dAb) VL: DIQMTQSPSSLSASVGDRVTITCRASQPIVRNLRWYQQKPGKAPKLLIYSSSALEPGVPSRFSGSGSGTDFTLTISSLQPEDFATYHCQQGYRWPVTFGQGTKVEIKR | 0.8
15 | ABT1-95-50 (other, VK dAb) VL: DIQMTQSPSSLSASVGDRVTITCRASQPIPRNLRWYQQKPGKAPKLLIYSSSYLEPGVPSRFSGSGSGTDFTLTISSLQPEDFATYHCQQGYRWPVTFGQGTKVEIKR | 0.5
16 | ABT1-95-83 (other, VK dAb) VL: DIQMTQSPSSLSASVGDRVTITCRASQPIVRNLRWYQQKPGKAPKLLIYSSSYLEPGVPPRFSGSGSGTDFTLTISSLQPEDFATYHCQQGYRWPVTFGQGTKVEIKR | 0.2

More lines, now with the values ahead:

Row | IC50 [nM] | Binder
17 | 0.3 | ABT1-95-76 (other, VK dAb) VL: DIQMTQSPSSLSASVGDRVTITCRASQPIVRNLRWYQQKPGKAPKLLIYSGSYLEPGVPSRFSGSGSGTDFTLTISSLQPEDFATYHCQQGYRWPVTFGQGTKVEIKR
18 | 0.6 | ABT1-95-55 (other, VK dAb) VL: DIQMTQSPSSLSASVGDRVTITCRASQPIVHNLRWYQQKPGKAPKLLIYSSSYLEPGVPSRFSGSGSGTDFTLTISSLQPEDFATYHCQQGYRWPVTFGQGTKVEIKR
19 | 0.1 | ABT1-95-70 (other, VK dAb) VL: DIQMTQSPSSLSASVGDRVTITCRASQPIVRNLRWYQQKPGKAPKLLVYGSSYLEPGVPSRFSGSGSGTDFTLTISSLQPEDFATYHCQQGYRWPVTFGQGTKVEIKR
20 | 1 | ABT1-95-52 (other, VK dAb) VL: DIQMTQSPSSLSASVGDRVTITCRASQPIVSNLRWYQQKPGKAPKLLIYSSSYLEPGVPSRFSGSGSGTDFTLTISSLQPEDFATYHCQQGYRWPVTFGQGTKVEIKR
21 | 0.8 | ABT1-95-46 (other, VK dAb) VL: DIQMTQSPSSLSASVGDRVTITCRASSPIVQNLRWYQQKPGKAPKLLIYSSSYLEPGVPSRFSGSGSGTDFTLTISSLQPEDFATYHCQQGYRWPVTFGQGTKVEIKR
22 | 0.3 | ABT1-95-78 (other, VK dAb) VL: DIQMTQSPSSLSASVGDRVTITCRASQPIVRNLRWYQQKPGKAPKLLIYSESYLEPGVPSRFSGSGSGTDFTLTISSLQPEDFATYHCQQGYRWPVTFGQGTKVEIKR
23 | 0.3 | ABT1-95-77 (other, VK dAb) VL: DIQMTQSPSSLSASVGDRVTITCRASQPIVRNLRWYQQKPGKAPELLIYSGSYLEPGVPSRFSGSGSGTDFTLTISSLQPEDFATYHCQQGYRWPVTFGQGTKVEIKR
24 | 0.3 | ABT1-95-74 (other, VK dAb) VL: DIQMTQSPSSLSASVGDRVTITCRASQPIVRNLRWYQQRPGKAPKLLIYSGSYLEPGVPSRFSGSGSGTDFTLTISSLQPEDFATYHCQQGYRWPVTFGQGTKVEIKR
25 | 0.6 | ABT1-95-58 (other, VK dAb) VL: DIQMTQSPSSLSASVGDRVTITCRARQPIVSNLRWYQQKPGKAPKLLIYSSSYLEPGVPSRFSGSGSGTDFTLTISSLQPEDFATYHCQQGYRWPVTFGQGTKVEIKR
26 | 3 | ABT1-95-73 (other, VK dAb) VL: DIQMTQSPSSLSASVGDRVTITCRASQPIVRNLRWYQQKPGKAPKLLIYQSSYLEPGVPSRFSGSGSGTDFTLTISSLQPEDFATYHCQQGYRWPVTFGQGTKVEIKR
27 | 0.1 | ABT1-95-94 (other, VK dAb) VL: DIQMTQSPSSLSASVGDRVTITCRASQPIVRNLRWYQQKPGKAPKLLIYSSSSLEPGVPSRFSGSGSGTDFTLTISSLQPEDFATYHCQQGYRWPVTFGQGTKVEIKR
28 | 0.5 | ABT1-95-90 (other, VK dAb) VL: DIQMTQSPSSLSASVGDRVTITCRASQPIVRNLRWYQQKPGKAPKLLIYSSSQLEPGVPSRFSGSGSGTDFTLTISSLQPEDFATYHCQQGYRWPVTFGQGTKVEIKR
29 | 0.7 | ABT1-95-60 (other, VK dAb) VL: DIQMTQSPASLSASVGDRVTITCRASQPIVANLRWYQQKPGKAPKLLIYSSSYLEPGVPSRFSGSGSGTDFTLTISSLQPEDFATYHCQQGYRWPVTFGQGTKVEIKR
30 | 0.3 | ABT1-95-89 (other, VK dAb) VL: DIQMTQSPSSLSASVGDRVTITCRASQPIVRNLRWYQQKPGKAPKLLIYSSSLLEPGVPSRFSGSGSGTDFTLTISSLQPEDFATYHCQQGYRWPVTFGQGTKVEIKR
31 | 0.3 | ABT1-95-53 (other, VK dAb) VL: DIQMTQSPSSLSASVGDRVTITCRASQPIVANLRWYQQKPGKAPKLLIYSSSYLEPGVPSRFSGSGSGTDFTLTISSLQPEDFATYHCQQGYRWPVTFGQGTKVEIKR
32 | 0.5 | ABT1-95-101 (other, VK dAb) VL: DIQMTQSPSSLSASVGDRVTITCRASQPIVRNLRWYQQKPGKAPKLLVYSSSLLEPGVPSRFSGSGSGTDFTLTISSLQPEDFATYHCQQGYRWPVTFGQGTKVEIKR
33 | 0.1 | ABT1-95-42 (other, VK dAb) VL: DIQMTQSPSSLSASVGDRVTITCRASFPIVRNLRWYQQKPGKAPKLLIYSSSYLEPGVPSRFSGSGSGTDFTLTISSLQPEDFATYHCQQGYRWPVTFGQGTKVEIKR
34 | 0.3 | ABT1-95-59 (other, VK dAb) VL: DIQMTQSPSSLSASVGDRVTITCRASQPIVKNLRWYQQKPGKAPKLLIYSSSYLEPGVPSRFSGSGSGTDFTLTISSLQPEDFATYHCQQGYRWPVTFGQGTKVEIKR
35 | 1 | ABT1-95-72 (other, VK dAb) VL: DIQMTQSPSSLSASVGDRVTITCRASQPIVRNLRWYQQKPGKAPKLLIYHSSYLEPGVPSRFSGSGSGTDFTLTISSLQPEDFATYHCQQGYRWPVTFGQGTKVEIKR
36 | 0.2 | ABT1-95-39 (other, VK dAb) VL: DIQMTQSPSSLSASVGDRVTITCRASQPIVRNLRWYQQKPGKAPKLLIYSSSYLEPGVPSRFSGSGSGTDFTLTISGLQPEDFATYHCQQGYRWPVTFGQGTKVEIKR
